Laboratory results: paper PMC9606253

What was measured:
[1] = target: SMARCA4 (mouse (endogenous in mouse brain)) (UniProt Q3TKT4); experiment: co-IP; three successive immunodepletions of adult Brwd1^FLAG-HA brain nuclear extract with antibodies to SMARCA4 or SS18L1 or IgG; signal left in the final flow-through by blot densitometry, normalised to IgG
[2] = target: SS18L1 (mouse (endogenous in mouse brain)) (UniProt Q8BW22); experiment: as above
[3] = target: SS18 (mouse (endogenous in mouse brain)) (UniProt Q62280); experiment: co-IP; three successive immunodepletions of E17.5 Brwd1^FLAG-HA brain nuclear extract with antibodies to SMARCA4, SS18 or SS18L1 or IgG; signal left in the final flow-through by blot densitometry, normalised to IgG
Chain of SS18 (mouse (endogenous in mouse brain)) (Q62280 whole entry): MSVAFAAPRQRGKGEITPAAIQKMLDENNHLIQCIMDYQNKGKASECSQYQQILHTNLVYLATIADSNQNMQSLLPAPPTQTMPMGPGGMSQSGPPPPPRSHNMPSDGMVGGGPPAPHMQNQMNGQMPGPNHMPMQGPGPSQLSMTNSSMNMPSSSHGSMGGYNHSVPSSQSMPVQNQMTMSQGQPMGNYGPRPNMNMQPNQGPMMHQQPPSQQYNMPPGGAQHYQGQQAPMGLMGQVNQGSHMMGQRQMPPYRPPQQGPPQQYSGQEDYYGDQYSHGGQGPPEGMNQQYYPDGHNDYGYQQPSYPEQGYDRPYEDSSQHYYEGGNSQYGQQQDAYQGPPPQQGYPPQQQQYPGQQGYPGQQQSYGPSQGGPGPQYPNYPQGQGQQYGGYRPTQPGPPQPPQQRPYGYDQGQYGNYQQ

[4] = target: SMARCA4 (mouse (endogenous in mouse brain)) (UniProt Q3TKT4); experiment: co-IP; brain nuclear extract partially denatured with 0, 0.25, 0.5, 1, 2 or 4 M urea (15 min, room temperature), dialysed, then IP with anti-SMARCA4 (BRG1 H-10) or mouse IgG; bound protein normalised to immunoprecipitated SMARCA4 (n = 3)

Chain of SMARCA4 (mouse (endogenous in mouse brain)) (Q3TKT4 whole entry): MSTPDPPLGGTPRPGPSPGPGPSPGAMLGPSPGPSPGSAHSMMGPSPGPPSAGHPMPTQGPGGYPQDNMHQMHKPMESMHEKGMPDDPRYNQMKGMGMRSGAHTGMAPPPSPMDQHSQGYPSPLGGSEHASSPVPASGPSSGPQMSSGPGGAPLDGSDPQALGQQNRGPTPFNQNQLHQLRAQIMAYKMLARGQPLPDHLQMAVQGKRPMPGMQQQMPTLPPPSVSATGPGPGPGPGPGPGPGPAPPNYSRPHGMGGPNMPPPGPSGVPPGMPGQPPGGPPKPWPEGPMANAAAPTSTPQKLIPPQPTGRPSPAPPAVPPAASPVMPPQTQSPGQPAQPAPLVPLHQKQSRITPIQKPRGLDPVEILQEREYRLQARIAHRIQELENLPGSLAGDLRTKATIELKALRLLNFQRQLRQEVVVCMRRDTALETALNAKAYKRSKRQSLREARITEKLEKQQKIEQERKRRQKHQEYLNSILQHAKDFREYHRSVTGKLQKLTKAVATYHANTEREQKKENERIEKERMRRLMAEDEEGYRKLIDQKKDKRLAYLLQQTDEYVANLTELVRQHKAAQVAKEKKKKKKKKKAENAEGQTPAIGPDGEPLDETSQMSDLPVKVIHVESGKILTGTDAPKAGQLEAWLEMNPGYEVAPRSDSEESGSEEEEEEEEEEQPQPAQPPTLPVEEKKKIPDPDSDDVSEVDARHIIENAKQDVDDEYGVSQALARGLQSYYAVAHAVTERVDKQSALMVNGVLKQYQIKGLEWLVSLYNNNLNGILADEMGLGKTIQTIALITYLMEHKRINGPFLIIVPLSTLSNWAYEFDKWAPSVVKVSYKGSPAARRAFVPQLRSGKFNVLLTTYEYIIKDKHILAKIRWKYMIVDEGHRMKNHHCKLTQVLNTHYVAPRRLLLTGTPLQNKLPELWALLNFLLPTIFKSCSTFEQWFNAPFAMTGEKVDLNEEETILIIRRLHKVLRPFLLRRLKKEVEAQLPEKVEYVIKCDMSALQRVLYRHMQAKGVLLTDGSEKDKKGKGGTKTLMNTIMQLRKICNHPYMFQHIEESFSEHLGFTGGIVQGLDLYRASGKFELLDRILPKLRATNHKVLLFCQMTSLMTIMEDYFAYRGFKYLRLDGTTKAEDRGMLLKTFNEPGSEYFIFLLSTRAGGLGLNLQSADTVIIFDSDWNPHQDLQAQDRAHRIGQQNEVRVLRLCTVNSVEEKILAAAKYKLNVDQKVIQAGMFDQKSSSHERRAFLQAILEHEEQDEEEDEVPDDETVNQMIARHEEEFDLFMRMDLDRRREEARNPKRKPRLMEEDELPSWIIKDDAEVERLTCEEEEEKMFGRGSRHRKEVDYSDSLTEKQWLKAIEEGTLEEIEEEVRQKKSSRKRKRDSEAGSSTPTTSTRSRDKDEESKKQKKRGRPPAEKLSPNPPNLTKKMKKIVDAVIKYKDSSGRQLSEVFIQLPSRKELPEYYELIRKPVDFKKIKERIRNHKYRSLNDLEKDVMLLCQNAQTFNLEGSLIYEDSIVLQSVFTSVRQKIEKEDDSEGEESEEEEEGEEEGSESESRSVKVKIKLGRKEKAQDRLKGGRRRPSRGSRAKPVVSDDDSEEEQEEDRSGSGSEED
Chain of BRWD1-FLAG-HA, Q921C3 1-2304 (natural protein) (Q921C3 whole entry): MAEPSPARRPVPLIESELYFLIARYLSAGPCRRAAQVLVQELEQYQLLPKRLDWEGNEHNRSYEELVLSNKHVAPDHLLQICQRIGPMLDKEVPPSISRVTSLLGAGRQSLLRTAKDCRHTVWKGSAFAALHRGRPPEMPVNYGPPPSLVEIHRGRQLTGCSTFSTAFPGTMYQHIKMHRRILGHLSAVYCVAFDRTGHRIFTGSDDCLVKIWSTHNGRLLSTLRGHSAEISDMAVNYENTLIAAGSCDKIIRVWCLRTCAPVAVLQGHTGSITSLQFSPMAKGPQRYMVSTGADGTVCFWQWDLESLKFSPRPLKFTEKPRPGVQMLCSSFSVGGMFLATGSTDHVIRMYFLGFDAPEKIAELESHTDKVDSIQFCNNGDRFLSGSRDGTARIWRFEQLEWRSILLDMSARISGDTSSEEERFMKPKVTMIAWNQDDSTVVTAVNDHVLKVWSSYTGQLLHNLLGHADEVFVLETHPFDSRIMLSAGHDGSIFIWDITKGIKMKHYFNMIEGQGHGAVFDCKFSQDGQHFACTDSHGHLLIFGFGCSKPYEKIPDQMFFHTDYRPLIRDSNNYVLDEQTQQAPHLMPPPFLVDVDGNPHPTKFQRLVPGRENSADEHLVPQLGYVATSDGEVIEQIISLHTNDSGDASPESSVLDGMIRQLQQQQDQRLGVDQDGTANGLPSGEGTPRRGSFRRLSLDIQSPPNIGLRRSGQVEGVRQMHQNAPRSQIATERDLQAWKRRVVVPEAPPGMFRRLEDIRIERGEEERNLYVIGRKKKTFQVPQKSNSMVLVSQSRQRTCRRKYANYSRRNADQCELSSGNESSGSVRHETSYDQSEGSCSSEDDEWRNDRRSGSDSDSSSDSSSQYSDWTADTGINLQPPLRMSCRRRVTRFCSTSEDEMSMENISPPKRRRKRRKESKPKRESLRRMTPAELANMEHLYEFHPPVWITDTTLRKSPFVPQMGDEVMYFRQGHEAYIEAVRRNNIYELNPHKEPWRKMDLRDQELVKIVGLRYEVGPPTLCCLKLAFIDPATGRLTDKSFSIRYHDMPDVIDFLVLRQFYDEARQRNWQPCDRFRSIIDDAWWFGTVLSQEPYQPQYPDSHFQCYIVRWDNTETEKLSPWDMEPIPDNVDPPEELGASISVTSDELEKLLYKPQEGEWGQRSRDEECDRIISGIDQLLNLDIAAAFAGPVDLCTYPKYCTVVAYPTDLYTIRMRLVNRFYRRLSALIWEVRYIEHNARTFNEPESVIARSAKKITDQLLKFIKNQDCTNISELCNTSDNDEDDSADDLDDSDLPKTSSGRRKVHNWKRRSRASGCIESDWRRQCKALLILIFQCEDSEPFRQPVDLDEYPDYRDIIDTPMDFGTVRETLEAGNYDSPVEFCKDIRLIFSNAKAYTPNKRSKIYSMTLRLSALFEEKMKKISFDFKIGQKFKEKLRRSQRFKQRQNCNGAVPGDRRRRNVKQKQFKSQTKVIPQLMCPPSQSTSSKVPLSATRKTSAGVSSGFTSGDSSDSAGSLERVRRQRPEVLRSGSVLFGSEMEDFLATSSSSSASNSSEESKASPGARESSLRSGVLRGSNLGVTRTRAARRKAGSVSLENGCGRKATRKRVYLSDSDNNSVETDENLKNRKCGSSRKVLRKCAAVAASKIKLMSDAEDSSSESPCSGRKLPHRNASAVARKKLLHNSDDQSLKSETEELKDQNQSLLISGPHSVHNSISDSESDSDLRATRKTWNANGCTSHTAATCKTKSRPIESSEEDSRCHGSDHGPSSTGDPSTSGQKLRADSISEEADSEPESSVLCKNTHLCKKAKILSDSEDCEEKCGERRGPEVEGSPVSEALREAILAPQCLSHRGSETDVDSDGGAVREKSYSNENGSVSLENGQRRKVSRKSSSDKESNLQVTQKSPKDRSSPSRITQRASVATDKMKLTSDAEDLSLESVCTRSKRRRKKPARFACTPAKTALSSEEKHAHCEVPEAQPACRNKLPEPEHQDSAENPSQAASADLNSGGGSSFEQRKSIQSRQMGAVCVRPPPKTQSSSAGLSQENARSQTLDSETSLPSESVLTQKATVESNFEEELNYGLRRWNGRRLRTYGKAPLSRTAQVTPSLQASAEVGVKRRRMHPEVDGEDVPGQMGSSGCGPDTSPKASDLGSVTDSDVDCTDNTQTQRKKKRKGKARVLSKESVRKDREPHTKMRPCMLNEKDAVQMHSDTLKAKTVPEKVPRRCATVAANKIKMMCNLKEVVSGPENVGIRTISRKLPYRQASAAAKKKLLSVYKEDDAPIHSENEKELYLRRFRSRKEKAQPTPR
Chain of SS18L1 (mouse (endogenous in mouse brain)) (Q8BW22 whole entry): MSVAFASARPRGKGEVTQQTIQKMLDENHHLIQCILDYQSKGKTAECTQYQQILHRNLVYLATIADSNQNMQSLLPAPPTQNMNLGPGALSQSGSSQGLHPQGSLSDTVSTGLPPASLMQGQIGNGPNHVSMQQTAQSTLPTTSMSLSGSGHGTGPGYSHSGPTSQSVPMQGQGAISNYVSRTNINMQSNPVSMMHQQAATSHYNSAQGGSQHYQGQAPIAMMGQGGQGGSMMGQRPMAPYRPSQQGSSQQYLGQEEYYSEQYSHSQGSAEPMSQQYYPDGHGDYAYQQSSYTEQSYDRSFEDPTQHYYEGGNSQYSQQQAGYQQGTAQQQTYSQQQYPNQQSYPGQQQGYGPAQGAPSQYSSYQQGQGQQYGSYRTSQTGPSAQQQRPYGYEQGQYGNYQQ

“BRWD1-FLAG-HA, Q921C3 1-2304 (natural protein)” was tested, and the percent co-depleted [1] was 20%, the percent co-depleted [2] was 20% and the percent co-depleted [3] was 20%. The percent destabilized in 0.5 M urea [4] was 60% and the percent remaining bound through 4 M urea [4] was 40%.
